In PMC5711526:

Molecular target: human alpha-thrombin (Homo sapiens, UniProt P00734;P00734 328-363;364-622)
Experiment: native ESI-MS

GGTTGGTGTGGTTGG (structured_DNA) [TBA (Bock thrombin binding aptamer, 15-mer)]: binds.
